Holding throughout (details): other: pH 7, 37° C., 0.25 mM NADH
Substrate in data set [1]: CC(=O)C(=O)O
Put plainly: OHB/pyruvate reductase assay, Gs-Ldh. Type of data set: biochemical, Geobacillus stearothermophilus. The source says:
(§1) The genes coding for (L)-malate dehydrogenase in Escherichia coli, Ec-mdh (SEQ ID NO: 1), (D)-lactate dehydrogenase in E. coli, Ec-ldhA (SEQ ID NO: 3), (L)-lactate dehydrogenase of Lactococcus lactis, Ll-ldhA (SEQ ID NO: 5), (L)-lactate dehydrogenase of Bacillus subtilis, Bs-ldh (SEQ ID NO: 7), (L)-lactate dehydrogenase of Geobacillus stearothermophilus, Gs-ldh (SEQ ID NO: 9), the two isoforms of the (L)-lactate dehydrogenase of Oryctalagus cuniculus, Oc-ldhA (SEQ ID NO: 11 and SEQ ID NO: 13), were amplified by PCR using the high-fidelity polymerase Phusion™ (Fermentas) and the primers listed in Table 1. Genomic DNAs of E. coli MG1655, L. lactis IL1403, and B. subtilis strain 168 were used as the template. The genes Oc-ldhA, and Gs-ldh were codon-optimized for expression in E. coli and synthesized by MWG Eurofins. The primers introduced restriction sites (Table 1) upstream of the start codon and downstream of the stop codon, respectively, facilitating the ligation of the digested PCR products into the corresponding sites of the pET28a+ (Novagen) expression vector using T4 DNA ligase (Fermentas). Ligation products were transformed into E. coli DH5a cells (NEB). […]

Substrate in data set [2]: O=C(O)C(=O)CCO
Put plainly: OHB/pyruvate reductase assay, Gs-Ldh. It is filed as biochemical, Geobacillus stearothermophilus.
From the text: as §1

Substrate in data set [3]: CC(=O)C(=O)O
Briefly: OHB/pyruvate reductase assay, Ec-LdhA. Type of data set: biochemical, Escherichia coli.
From the text: as §1

Substrate in data set [4]: O=C(O)C(=O)CCO
Put plainly: OHB/pyruvate reductase assay, Ec-LdhA. Type of data set: biochemical, Escherichia coli.
From the text: as §1

Substrate in data set [5]: O=C(O)CC(=O)C(=O)O
Put plainly: OHB/oxaloacetate reductase assay (NADH oxidation at 340 nm), Ec-Mdh wild type. Type of data set: biochemical, Escherichia coli.
From the text: as §1

Substrate in data set [6]: O=C(O)C(=O)CCO
Briefly: OHB/oxaloacetate reductase assay, Ec-Mdh R81A M85Q I12V. Type of data set: biochemical, Escherichia coli. Here is the method: (§2) Enzymatic assays: The reaction mixture contained 60 mM Hepes (pH 7), 50 mM potassium chloride, 5 mM MgCl2, 0.25 mM NADH, (optionally 5 mM fructose-1,6-bisphosphate) (all products from Sigma), and appropriate amounts of purified malate or lactate dehydrogenase or cell extract. Reactions were started by adding appropriate amounts of 2-oxo-4-hydroxybutyrate (OHB), pyruvate, or oxaloacetate (OAA). Enzymatic assays were carried out at 37° C. in 96-well flat bottomed microtiter plates in a final volume of 250 μL. The reactions were followed by the characteristic absorption of NADH at 340 nm (εNADH=6.22 mM^−1 cm^−1) in a microplate reader (BioRad 680XR).
Site-directed mutagenesis of the mdh gene from E. coli was carried out as described in Example 2 using the primers listed in Table 5. Plasmid pET28-Ec-mdh was used as the template.
Mutant enzymes were expressed, purified and tested for OHB and oxaloacetate reductase activity as described in Example 1. […] The mutation R81A in Ec-Mdh was combined with additional changes in the protein sequence.

Substrate in data set [7]: CC(=O)C(=O)O
Put plainly: OHB/pyruvate reductase assay, Ll-Ldh wild type. It is filed as biochemical, Lactococcus lactis.
From the text: as §1

Substrate in data set [8]: CC(=O)C(=O)O
Put plainly: OHB/pyruvate reductase assay, Ll-LdhA Q85N I226V. Type of data set: biochemical, Lactococcus lactis. As to the method: as §2
(§3) Site-directed mutagenesis of the L. lactis ldhA gene was carried out using the pET28-Ll-ldhA plasmid as the template. Point mutations to change the amino acid sequence were introduced by PCR (Phusion 1U, HF buffer 20% (v/v), dNTPs 0.2 mM, direct and reverse primers 0.04 μM each, template plasmid 30-50 ng, water) using the oligonucleotide pairs listed in Table 3. The genes mutated by PCR contained a new restriction site listed in Table 3 (introduced using silent mutations) in addition to the functional mutation to facilitate identification of mutated clones. The PCR products were digested by DpnI at 37° C. for 1 h to remove template DNA, and transformed into competent E. coli DH5α (NEB) cells. […]

Substrate in data set [9]: O=C(O)C(=O)CCO
Put plainly: OHB/pyruvate reductase assay, Ll-LdhA Q85N I226V. Type of data set: biochemical, Lactococcus lactis. Here is the method:
as §2, §3

Substrate in data set [10]: CC(=O)C(=O)O
Put plainly: OHB/pyruvate reductase assay, Ll-LdhA Q85N. It is filed as biochemical, Lactococcus lactis. Here is the method:
as §2, §3

Substrate in data set [11]: O=C(O)C(=O)CCO
Briefly: OHB/pyruvate reductase assay, Ll-LdhA Q85N. It is filed as biochemical, Lactococcus lactis. Here is the method: as §2, §3

B1: Geobacillus stearothermophilus (L)-lactate dehydrogenase Gs-Ldh, SEQ ID NO: 10 (Geobacillus stearothermophilus) (protein)
chain: MKNNGGARVVVIGAGFVGASYVFALMNQGIADEIVLIDANESKAIGDAMDFNHGKVFAPKPVDIWHGDYDDCRDADLVVICAGANQKPGETRLDLVDKNIAIFRSIVESVMASGFQGLFLVATNPVDILTYATWKFSGLPHERVIGSGTILDTARFRFLLGEYFSVAPQNVHAYIIGEHGDTELPVWSQAYIGVMPIRKLVESKGEEAQKDLERIFVNVRDAAYQIIEKKGATYYGIAMGLARVTRAILHNENAILTVSAYLDGLYGERDVYIGVPAVINRNGIREVIEIELNDDEKNRFHHSAATLKSVLARAFTR
notes: made in house; host or cells: E. coli BL21 (DE3) star
In the case of B1, the Km (as a rule, the concentration of substrate that gives half-maximal velocity) in data set [1] was 1.2 mM; in data set [2], 1.3 mM.

B2: Escherichia coli (D)-lactate dehydrogenase Ec-LdhA, SEQ ID NO: 4 (Escherichia coli K-12) (protein)
chain: MKLAVYSTKQYDKKYLQQVNESFGFELEFFDFLLTEKTAKTANGCEAVCIFVNDDGSRPVLEELKKHGVKYIALRCAGFNNVDLDAAKELGLKVVRVPAYDPEAVAEHAIGMMMTLNRRIHRAYQRTRDANFSLEGLTGFTMYGKTAGVIGTGKIGVAMLRILKGFGMRLLAFDPYPSAAALELGVEYVDLPTLFSESDVISLHCPLTPENYHLLNEAAFEQMKNGVMIVNTSRGALIDSQAAIEALKNQKIGSLGMDVYENERDLFFEDKSNDVIQDDVFRRLSACHNVLFTGHQAFLTAEALTSISQTTLQNLSNLEKGETCPNELV
notes: as for B1
Take B2: the Michaelis-Menten constant (Km) in data set [3] is 1.8 mM; in data set [4], 4.8 mM.

B3: Escherichia coli (L)-malate dehydrogenase Ec-Mdh, wild type, SEQ ID NO: 2 (Escherichia coli K-12) (protein)
chain: MKVAVLGAAGGIGQALALLLKTQLPSGSELSLYDIAPVTPGVAVDLSHIPTAVKIKGFSGEDATPALEGADVVLISAGVARKPGMDRSDLFNVNAGIVKNLVQQVAKTCPKACIGIITNPVNTTVAIAAEVLKKAGVYDKNKLFGVTTLDIIRSNTFVAELKGKQPGEVEVPVIGGHSGVTILPLLSQVPGVSFTEQEVADLTKRIQNAGTEVVEAKAGGGSATLSMGQAAARFGLSLVRALQGEQGVVECAYVEGDGQYARFFSQPLLLGKNGVEERKSIGTLSAFEQNALEGMLDTLKKDIALGEEFVNK
notes: as for B1
On to B3, for which the Michaelis constant (Km) in [5] is reported as 0.04 mM.

B4: Escherichia coli malate dehydrogenase Ec-Mdh variant R81A M85Q I12V, SEQ ID No. 108 (Escherichia coli K-12; I12V/M85Q/R81A) (protein)
chain: MKVAVLGAAGGVGQALALLLKTQLPSGSELSLYDIAPVTPGVAVDLSHIPTAVKIKGFSGEDATPALEGADVVLISAGVAAKPGQDRSDLFNVNAGIVKNLVQQVAKTCPKACIGIITNPVNTTVAIAAEVLKKAGVYDKNKLFGVTTLDIIRSNTFVAELKGKQPGEVEVPVIGGHSGVTILPLLSQVPGVSFTEQEVADLTKRIQNAGTEVVEAKAGGGSATLSMGQAAARFGLSLVRALQGEQGVVECAYVEGDGQYARFFSQPLLLGKNGVEERKSIGTLSAFEQNALEGMLDTLKKDIALGEEFVNK
On to B4, for which the Michaelis constant (Km) in data set [6] was found to be 15 mM.

B5: Lactococcus lactis (L)-lactate dehydrogenase Ll-LdhA (Ll-Ldh), wild type, SEQ ID NO: 6 (Lactococcus lactis subsp. lactis Il1403) (protein)
chain: MADKQRKKVILVGDGAVGSSYAFALVNQGIAQELGIVDLFKEKTQGDAEDLSHALAFTSPKKIYSADYSDASDADLVVLTSGAPQKPGETRLDLVEKNLRITKDVVTKIVASGFKGIFLVAANPVDILTYATWKFSGFPKNRVVGSGTSLDTARFRQALAEKVDVDARSIHAYIMGEHGDSEFAVWSHANVAGVKLEQWFQENDYLNEAEIVELFESVRDAAYSIIAKKGATFYGVAVALARITKAILDDEHAVLPVSVFQDGQYGVSDCYLGQPAVVGAEGVVNPIHIPLNDAEMQKMEASGAQLKAIIDEAFAKEEFASAVKN
With B5, the Km in [7] turned out to be 2.7 mM.

B6: Lactococcus lactis (L)-lactate dehydrogenase A Ll-LdhA variant Q85N I226V (Q85NI226V), SEQ ID No. 32 (Lactococcus lactis subsp. lactis Il1403; I226V/Q85N) (protein)
chain: MADKQRKKVILVGDGAVGSSYAFALVNQGIAQELGIVDLFKEKTQGDAEDLSHALAFTSPKKIYSADYSDASDADLVVLTSGAPNKPGETRLDLVEKNLRITKDVVTKIVASGFKGIFLVAANPVDILTYATWKFSGFPKNRVVGSGTSLDTARFRQALAEKVDVDARSIHAYIMGEHGDSEFAVWSHANVAGVKLEQWFQENDYLNEAEIVELFESVRDAAYSIVAKKGATFYGVAVALARITKAILDDEHAVLPVSVFQDGQYGVSDCYLGQPAVVGAEGVVNPIHIPLNDAEMQKMEASGAQLKAIIDEAFAKEEFASAVKN
With B6, the results for the Km in [8] and in [9] were 1.4 mM and 3.3 mM, respectively.

B7: Lactococcus lactis (L)-lactate dehydrogenase A Ll-LdhA variant Q85N, SEQ ID No. 30 (Lactococcus lactis subsp. lactis Il1403; Q85N) (protein)
chain: MADKQRKKVILVGDGAVGSSYAFALVNQGIAQELGIVDLFKEKTQGDAEDLSHALAFTSPKKIYSADYSDASDADLVVLTSGAPNKPGETRLDLVEKNLRITKDVVTKIVASGFKGIFLVAANPVDILTYATWKFSGFPKNRVVGSGTSLDTARFRQALAEKVDVDARSIHAYIMGEHGDSEFAVWSHANVAGVKLEQWFQENDYLNEAEIVELFESVRDAAYSIIAKKGATFYGVAVALARITKAILDDEHAVLPVSVFQDGQYGVSDCYLGQPAVVGAEGVVNPIHIPLNDAEMQKMEASGAQLKAIIDEAFAKEEFASAVKN
As to B7, the Michaelis constant (Km) in [10] stood at 22.1 mM; in data set [11], 29.2 mM.

Values taken from patent US11505811B2, “Method for the preparation of 2,4-dihydroxybutyrate” (ADISSEO FRANCE S.A.S., priority 2012, dated 2022).
